Assay [1] concerns the target soluble Tau in control human brain lysate (human) (UniProt P10636). As to the kind of experiment: ELISA on coated brain lysate, antibody 0.5 nM.
Assay [2] deals with soluble Tau in Alzheimer's disease human brain lysate (human) (UniProt P10636). As to the kind of experiment: ELISA on coated brain lysate, antibody 0.5 nM.
The target of assay [3] is soluble Tau in control human brain lysate (human) (UniProt P10636). Put plainly: ELISA on coated brain lysate, antibody 5 nM.
soluble Tau in control human brain lysate (human), sequence (P10636 other isoform, or with tags, fused parts or gaps limits assumed): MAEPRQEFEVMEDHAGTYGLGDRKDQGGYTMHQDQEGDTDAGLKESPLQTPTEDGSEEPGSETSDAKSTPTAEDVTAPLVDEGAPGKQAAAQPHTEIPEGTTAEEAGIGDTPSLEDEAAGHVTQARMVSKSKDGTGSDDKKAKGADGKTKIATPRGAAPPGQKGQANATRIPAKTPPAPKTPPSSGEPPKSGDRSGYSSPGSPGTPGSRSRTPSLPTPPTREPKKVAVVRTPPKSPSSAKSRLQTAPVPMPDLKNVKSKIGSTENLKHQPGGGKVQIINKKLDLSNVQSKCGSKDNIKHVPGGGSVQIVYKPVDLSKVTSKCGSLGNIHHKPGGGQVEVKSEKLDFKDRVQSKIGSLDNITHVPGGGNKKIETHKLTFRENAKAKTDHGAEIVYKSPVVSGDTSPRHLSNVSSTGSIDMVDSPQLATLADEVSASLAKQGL
Assay [4] deals with soluble Tau in Alzheimer's disease human brain lysate (human) (UniProt P10636). As to the kind of experiment: ELISA on coated brain lysate, antibody 5 nM.

Values joined by “and” are separate entries in the source; they are usually repeats but may differ in a detail not shown here. Equal entries are not always repeated.

soluble Tau in Alzheimer's disease human brain lysate (human), sequence (P10636 other isoform, or with tags, fused parts or gaps limits assumed): as above

For the substance anti-RSV antibody (negative control), the ELISA signal in assay [1] was 0.147 and 0.106 and 0.108; in assay [2], 0.108 and 0.117 and 0.115; in assay [3], 0.151 and 0.107 and 0.11; in assay [4], 0.108 and 0.107 and 0.117.
